Measured values as given in article PMC10842378 (Cell reports, 2023).

What was measured:
[1] = target: FLAG-AP-DHX15 LML triple mutant L536A/M537A/L540A (human, UniProt O43143 1-795, L536A | M537A | L540A); assay: proximity labelling
FLAG-AP-DHX15 R222G = FLAG-AP-DHX15 R222G (human, UniProt O43143 1-795, R222G); assay: proximity labelling
Chain of FLAG-AP-DHX15 R222G (O43143 whole entry R222G): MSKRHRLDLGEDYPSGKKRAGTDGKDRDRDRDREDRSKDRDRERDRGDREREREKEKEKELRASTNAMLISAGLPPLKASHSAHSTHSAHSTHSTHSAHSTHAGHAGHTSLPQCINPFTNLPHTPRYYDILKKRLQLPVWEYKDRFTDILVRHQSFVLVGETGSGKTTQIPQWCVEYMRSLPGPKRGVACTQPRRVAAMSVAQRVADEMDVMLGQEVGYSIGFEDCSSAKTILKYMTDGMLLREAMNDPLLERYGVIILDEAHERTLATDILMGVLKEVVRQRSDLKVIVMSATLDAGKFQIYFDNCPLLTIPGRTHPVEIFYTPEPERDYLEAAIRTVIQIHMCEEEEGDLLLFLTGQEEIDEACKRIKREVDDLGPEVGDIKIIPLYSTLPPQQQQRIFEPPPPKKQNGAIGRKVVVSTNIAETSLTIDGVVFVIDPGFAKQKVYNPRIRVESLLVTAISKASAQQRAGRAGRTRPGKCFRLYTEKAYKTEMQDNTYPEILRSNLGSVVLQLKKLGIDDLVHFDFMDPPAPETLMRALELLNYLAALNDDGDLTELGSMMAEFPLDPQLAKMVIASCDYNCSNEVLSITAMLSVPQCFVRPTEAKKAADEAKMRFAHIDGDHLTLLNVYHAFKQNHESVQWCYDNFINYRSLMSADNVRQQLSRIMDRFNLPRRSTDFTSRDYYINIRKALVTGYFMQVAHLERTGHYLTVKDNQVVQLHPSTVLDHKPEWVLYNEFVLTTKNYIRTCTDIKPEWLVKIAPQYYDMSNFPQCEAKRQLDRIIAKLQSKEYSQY

Chain of FLAG-AP-DHX15 LML triple mutant L536A/M537A/L540A (O43143 whole entry L536A/M537A/L540A): as the sequence (O43143 whole entry R222G) above, with G222R, L536A, M537A, L540A counted along it

Row | Binder | level in the streptavidin pull-down (percent) [1] | level in the streptavidin pull-down (percent) (FLAG-AP-DHX15 R222G)
1 | SF3B1 (natural protein, human (endogenous in HEK293T.A2), UniProt O75533 1-1304, looked up) MAKIAKTHEDIEAQIREIQGKKAALDEAQGVGLDSTGYYDQEIYGGSDSRFAGYVTSIAATELEDDDDDYSSSTSLLGQKKPGYHAPVALLNDIPQSTEQYDPFAEHRPPKIADREDEYKKHRRTMIISPERLDPFADGGKTPDPKMNARTYMDVMREQHLTKEEREIRQQLAEKAKAGELKVVNGAAASQPPSKRKRRWDQTADQTPGATPKKLSSWDQAETPGHTPSLRWDETPGRAKGSETPGATPGSKIWDPTPSHTPAGAATPGRGDTPGHATPGHGGATSSARKNRWDETPKTERDTPGHGSGWAETPRTDRGGDSIGETPTPGASKRKSRWDETPASQMGGSTPVLTPGKTPIGTPAMNMATPTPGHIMSMTPEQLQAWRWEREIDERNRPLSDEELDAMFPEGYKVLPPPAGYVPIRTPARKLTATPTPLGGMTGFHMQTEDRTMKSVNDQPSGNLPFLKPDDIQYFDKLLVDVDESTLSPEEQKERKIMKLLLKIKNGTPPMRKAALRQITDKAREFGAGPLFNQILPLLMSPTLEDQERHLLVKVIDRILYKLDDLVRPYVHKILVVIEPLLIDEDYYARVEGREIISNLAKAAGLATMISTMRPDIDNMDEYVRNTTARAFAVVASALGIPSLLPFLKAVCKSKKSWQARHTGIKIVQQIAILMGCAILPHLRSLVEIIEHGLVDEQQKVRTISALAIAALAEAATPYGIESFDSVLKPLWKGIRQHRGKGLAAFLKAIGYLIPLMDAEYANYYTREVMLILIREFQSPDEEMKKIVLKVVKQCCGTDGVEANYIKTEILPPFFKHFWQHRMALDRRNYRQLVDTTVELANKVGAAEIISRIVDDLKDEAEQYRKMVMETIEKIMGNLGAADIDHKLEEQLIDGILYAFQEQTTEDSVMLNGFGTVVNALGKRVKPYLPQICGTVLWRLNNKSAKVRQQAADLISRTAVVMKTCQEEKLMGHLGVVLYEYLGEEYPEVLGSILGALKAIVNVIGMHKMTPPIKDLLPRLTPILKNRHEKVQENCIDLVGRIADRGAEYVSAREWMRICFELLELLKAHKKAIRRATVNTFGYIAKAIGPHDVLATLLNNLKVQERQNRVCTTVAIAIVAETCSPFTVLPALMNEYRVPELNVQNGVLKSLSFLFEYIGEMGKDYIYAVTPLLEDALMDRDLVHRQTASAVVQHMSLGVYGFGCEDSLNHLLNYVWPNVFETSPHVIQAVMGALEGLRVAIGPCRMLQYCLQGLFHPARKVRDVYWKIYNSIYIGSQDALIAHYPRIYNDDKNTYIRYELDYIL | 36% | 76%
2 | U2AF2 (natural protein, human (endogenous in HEK293T.A2), UniProt P26368 1-475, looked up) MSDFDEFERQLNENKQERDKENRHRKRSHSRSRSRDRKRRSRSRDRRNRDQRSASRDRRRRSKPLTRGAKEEHGGLIRSPRHEKKKKVRKYWDVPPPGFEHITPMQYKAMQAAGQIPATALLPTMTPDGLAVTPTPVPVVGSQMTRQARRLYVGNIPFGITEEAMMDFFNAQMRLGGLTQAPGNPVLAVQINQDKNFAFLEFRSVDETTQAMAFDGIIFQGQSLKIRRPHDYQPLPGMSENPSVYVPGVVSTVVPDSAHKLFIGGLPNYLNDDQVKELLTSFGPLKAFNLVKDSATGLSKGYAFCEYVDINVTDQAIAGLNGMQLGDKKLLVQRASVGAKNATLVSPPSTINQTPVTLQVPGLMSSQVQMGGHPTEVLCLMNMVLPEELLDDEEYEEIVEDVRDECSKYGLVKSIEIPRPVDGVEVPGCGKIFVEFTSVFDCQKAMQGLTGRKFANRVVVTKYCDPDSYHRRDFW | 47% | 80%
